Measurements reported in paper PMC6230950.

Key:
[1] = target: commercial purified human IgG1 (human); assay: SPR; Biacore X100, HBS-EP+; TB-PIGS captured on protein A coupled to a CM5 chip; FcγR as analyte, 40 μL/min; affinity of one FcγR for a single arm
[2] = target: commercial purified human IgG1 (human); assay: SPR; Biacore X100; protein A on a CM5 chip, IgG or TB-PIGS captured; human CD32a as analyte, 4000 nM to 125 nM in 2-fold dilutions; HBS-EP+; 40 uL/min, contact 90 s; steady-state affinity analysis
[3] = target: commercial purified murine IgG2a (mouse); assay: SPR; Biacore X100; protein A amine-coupled on a CM5 chip, IgG or TB-PIGS captured on it; CD64 (human or mouse) as analyte, 240 nM down to 1.875 nM in 1:2 dilutions; HBS-EP+; 40 uL/min, contact 135 s, dissociation 600 s; 1:1 model, but for human TB-PIGS from wild-type plants the 'Heterogeneous antibody with aglycosylation' model (two sets of values)

## human CD16a (FcγRIIIa) (from UniProt P08637 17-208) (receptor)
[1]
  Kd: 673 nM

## human CD32a (FcγRIIa) (from UniProt P12318 34-217) (receptor)
[2]
  Kd: 880 nM

## human CD64 (FcγRI) (from UniProt P12314 16-292) (receptor)
[1]
  Kd: 0.27 nM

B1: mouse CD64 (FcγRI) (receptor)
chain: EVVNATKAVITLQPPWVSIFQKENVTLWCEGPHLPGDSSTQWFINGTAVQISTPSYSIPEASFQDSGEYRCQIGSSMPSDPVQLQIHNDWLLLQASRRVLTEGEPLALRCHGWKNKLVYNVVFYRNGKSFQFSSDSEVAILKTNLSHSGIYHCSGTGRHRYTSAGVSITVKELFTTPVLRASVSSPFPEGSLVTLNCETNLLLQRPGLQLHFSFYVGSKILEYRNTSSEYHIARAEREDAGFYWCEVATEDSSVLKRSPELELQVLGPQSSAP
[3]
  Kd: 4.8 nM
  koff: 0.0105 s⁻¹
  kon: 2.18e+06 M⁻¹ s⁻¹
